Assay results reported in patent US20150224205A1.
Values joined by “and” are separate entries in the source; they are usually repeats but may differ in a detail not shown here. Equal entries are not always repeated.

target: T1, C1-esterase; test: cell-based or functional assay
T1 sequence (P09871 16-688, species assumed, looked up): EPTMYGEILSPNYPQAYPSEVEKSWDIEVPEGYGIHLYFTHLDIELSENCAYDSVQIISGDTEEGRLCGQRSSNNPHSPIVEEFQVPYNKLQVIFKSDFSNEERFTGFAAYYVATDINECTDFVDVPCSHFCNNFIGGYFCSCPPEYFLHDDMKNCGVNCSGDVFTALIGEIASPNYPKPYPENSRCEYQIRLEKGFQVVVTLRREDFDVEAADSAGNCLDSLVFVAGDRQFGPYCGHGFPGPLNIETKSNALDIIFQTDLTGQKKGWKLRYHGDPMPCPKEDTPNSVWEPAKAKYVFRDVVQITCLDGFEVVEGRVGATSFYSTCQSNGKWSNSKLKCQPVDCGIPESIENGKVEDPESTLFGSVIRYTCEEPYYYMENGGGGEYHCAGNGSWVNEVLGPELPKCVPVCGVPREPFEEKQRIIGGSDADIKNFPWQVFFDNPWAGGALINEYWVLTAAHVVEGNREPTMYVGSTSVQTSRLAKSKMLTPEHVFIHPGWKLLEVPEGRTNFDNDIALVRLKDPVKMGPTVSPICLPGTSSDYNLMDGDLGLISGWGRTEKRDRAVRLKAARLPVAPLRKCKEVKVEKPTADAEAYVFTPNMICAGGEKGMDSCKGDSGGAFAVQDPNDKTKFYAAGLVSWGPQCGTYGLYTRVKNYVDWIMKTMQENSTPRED

Sequence of ALD-PEG(40 k)-C1 INH, mono PEGylated (PEG#/C1 INH = 1) (P05155 23-500 limits assumed): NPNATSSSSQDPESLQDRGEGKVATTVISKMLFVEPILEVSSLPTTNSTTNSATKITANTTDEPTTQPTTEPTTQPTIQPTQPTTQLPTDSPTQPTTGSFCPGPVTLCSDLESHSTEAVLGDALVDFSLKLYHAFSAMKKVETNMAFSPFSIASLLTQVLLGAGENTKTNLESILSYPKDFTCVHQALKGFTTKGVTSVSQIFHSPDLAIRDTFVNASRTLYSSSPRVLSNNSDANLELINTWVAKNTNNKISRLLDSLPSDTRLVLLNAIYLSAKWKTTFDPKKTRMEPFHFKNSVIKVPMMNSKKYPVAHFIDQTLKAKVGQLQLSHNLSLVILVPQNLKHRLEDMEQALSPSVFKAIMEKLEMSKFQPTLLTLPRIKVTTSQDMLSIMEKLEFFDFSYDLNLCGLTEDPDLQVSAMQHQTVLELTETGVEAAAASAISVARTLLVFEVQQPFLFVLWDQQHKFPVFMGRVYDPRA
Sequence of 5k mPEG-BCN-C1 INH (P05155 23-500 limits assumed): as above
Sequence of ALD-PEG2(40 k)-C1 INH, di PEGylated (PEG#/C1 INH = 2) (P05155 23-500 limits assumed): as above
Sequence of ALD-PEG(40 k)-C1 INH, di PEGylated (PEG#/C1 INH = 2) (P05155 23-500 limits assumed): as above
Sequence of ALD-PEG2(40 k)-C1 INH, mono PEGylated (PEG#/C1 INH = 1) (P05155 23-500 limits assumed): as above

| Substance | % C1 INH Activity | C1 in activity | Specific Activity (U/mg) |
| --- | --- | --- | --- |
| ALD-PEG2(40 k)-C1 INH, mono PEGylated (PEG#/C1 INH = 1) (from UniProt P05155 23-500) | 81% |  | 7.4 U/mg |
| ALD-PEG(40 k)-C1 INH, mono PEGylated (PEG#/C1 INH = 1) (from UniProt P05155 23-500) | 67% |  | 6.1 U/mg and 6.9 U/mg |

The remaining lines, values ahead:

| % C1 INH Activity | C1 in activity | Specific Activity (U/mg) | Substance |
| --- | --- | --- | --- |
| 100% | 3.7 U/mg | 7.3 U/mg | 5k mPEG-BCN-C1 INH (from UniProt P05155 23-500) |
| 43% |  | 3.9 U/mg | ALD-PEG2(40 k)-C1 INH, di PEGylated (PEG#/C1 INH = 2) (from UniProt P05155 23-500) |
| 75% |  | 6.8 U/mg | ALD-PEG(40 k)-C1 INH, di PEGylated (PEG#/C1 INH = 2) (from UniProt P05155 23-500) |
